Results as given in the supplement of paper PMC10065799, “High-throughput profiling of sequence recognition by tyrosine kinases and SH2 domains using bacterial peptide display” (eLife, 2023).

Assays:
AncSZ = experiment: phosphorylation enrichment, bacterial display (enrichment ratio); higher = better substrate or ligand; peptides without Tyr show the background
EPHB1 = EPHB1 (UniProt P54762); experiment: as above
EPHB2 = EPHB2 (UniProt P29323); experiment: as above
FGFR1 = FGFR1 (UniProt P11362); experiment: as above
FGFR3 = FGFR3 (UniProt P22607); experiment: as above
Fer (mouse) = experiment: as above
Fes = Fes (UniProt P07332); experiment: as above
Fyn = Fyn (UniProt P06241); experiment: as above
Hck = Hck (UniProt P08631); experiment: as above
Jak2 = Jak2 (UniProt O60674); experiment: as above
MERTK = MERTK (UniProt Q12866); experiment: as above
c-Abl (mouse) = experiment: as above
c-Src = experiment: as above
Grb2 SH2 = Grb2 SH2 (UniProt P62993); experiment: SH2 binding enrichment of the phosphorylated peptide, bacterial display (enrichment ratio); higher = better substrate or ligand; peptides without Tyr show the background
SHP2-C SH2 = experiment: as above
c-Src SH2 = experiment: as above
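Throughout, for SH2 binding enrichment of the phosphorylated peptide, bacterial display: peptide library displayed on the E. coli surface as eCPX fusions, selected cells deep-sequenced, score is each peptide's frequency after selection divided by its frequency in the input.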
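Throughout, for phosphorylation enrichment, bacterial display: 11-residue human phosphosite peptides and single-mutation variants displayed on the E. coli surface, counted by deep sequencing, each peptide's frequency after selection divided by its frequency in the unselected input library; frequency after pTyr selection over input frequency; kinase dosed for 20-30% of maximal phosphorylation in three min.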

Chain of Grb2 SH2 (P62993 whole entry, looked up): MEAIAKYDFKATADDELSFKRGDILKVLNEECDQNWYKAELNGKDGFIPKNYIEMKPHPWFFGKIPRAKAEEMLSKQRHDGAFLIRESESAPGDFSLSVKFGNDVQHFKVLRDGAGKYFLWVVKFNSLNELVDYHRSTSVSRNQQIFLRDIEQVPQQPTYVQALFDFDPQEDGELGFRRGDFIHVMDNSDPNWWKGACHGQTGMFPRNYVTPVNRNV
Chain of Jak2 (O60674 whole entry, looked up): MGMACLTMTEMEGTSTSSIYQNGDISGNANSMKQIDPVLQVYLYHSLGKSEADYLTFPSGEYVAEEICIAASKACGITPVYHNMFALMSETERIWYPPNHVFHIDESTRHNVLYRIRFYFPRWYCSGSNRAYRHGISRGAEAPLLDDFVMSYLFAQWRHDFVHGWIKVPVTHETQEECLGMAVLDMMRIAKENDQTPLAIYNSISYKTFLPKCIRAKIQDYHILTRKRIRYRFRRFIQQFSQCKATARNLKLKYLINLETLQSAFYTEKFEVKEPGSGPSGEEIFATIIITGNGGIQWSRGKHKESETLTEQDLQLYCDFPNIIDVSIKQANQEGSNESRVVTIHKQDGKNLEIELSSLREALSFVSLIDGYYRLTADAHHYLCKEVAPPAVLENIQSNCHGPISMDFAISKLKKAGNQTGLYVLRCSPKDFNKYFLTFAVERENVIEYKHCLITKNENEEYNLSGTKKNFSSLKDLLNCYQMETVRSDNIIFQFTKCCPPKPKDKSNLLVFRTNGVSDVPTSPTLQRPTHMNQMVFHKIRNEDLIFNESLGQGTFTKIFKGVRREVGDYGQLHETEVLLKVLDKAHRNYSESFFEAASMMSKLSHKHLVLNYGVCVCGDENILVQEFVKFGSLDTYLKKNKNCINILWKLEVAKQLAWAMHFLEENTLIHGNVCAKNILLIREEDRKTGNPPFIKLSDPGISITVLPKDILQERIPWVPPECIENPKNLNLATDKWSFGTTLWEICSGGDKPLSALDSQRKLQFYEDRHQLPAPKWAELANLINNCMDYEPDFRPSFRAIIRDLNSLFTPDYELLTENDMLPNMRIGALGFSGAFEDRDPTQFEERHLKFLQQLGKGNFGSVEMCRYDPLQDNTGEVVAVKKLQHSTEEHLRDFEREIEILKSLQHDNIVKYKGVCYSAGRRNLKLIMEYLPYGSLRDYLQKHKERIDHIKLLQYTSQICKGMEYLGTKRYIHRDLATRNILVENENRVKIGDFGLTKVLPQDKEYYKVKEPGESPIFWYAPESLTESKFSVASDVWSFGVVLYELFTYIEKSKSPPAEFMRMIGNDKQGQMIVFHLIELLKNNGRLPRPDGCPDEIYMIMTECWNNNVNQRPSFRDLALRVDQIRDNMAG
Chain of EPHB1 (P54762 whole entry, looked up): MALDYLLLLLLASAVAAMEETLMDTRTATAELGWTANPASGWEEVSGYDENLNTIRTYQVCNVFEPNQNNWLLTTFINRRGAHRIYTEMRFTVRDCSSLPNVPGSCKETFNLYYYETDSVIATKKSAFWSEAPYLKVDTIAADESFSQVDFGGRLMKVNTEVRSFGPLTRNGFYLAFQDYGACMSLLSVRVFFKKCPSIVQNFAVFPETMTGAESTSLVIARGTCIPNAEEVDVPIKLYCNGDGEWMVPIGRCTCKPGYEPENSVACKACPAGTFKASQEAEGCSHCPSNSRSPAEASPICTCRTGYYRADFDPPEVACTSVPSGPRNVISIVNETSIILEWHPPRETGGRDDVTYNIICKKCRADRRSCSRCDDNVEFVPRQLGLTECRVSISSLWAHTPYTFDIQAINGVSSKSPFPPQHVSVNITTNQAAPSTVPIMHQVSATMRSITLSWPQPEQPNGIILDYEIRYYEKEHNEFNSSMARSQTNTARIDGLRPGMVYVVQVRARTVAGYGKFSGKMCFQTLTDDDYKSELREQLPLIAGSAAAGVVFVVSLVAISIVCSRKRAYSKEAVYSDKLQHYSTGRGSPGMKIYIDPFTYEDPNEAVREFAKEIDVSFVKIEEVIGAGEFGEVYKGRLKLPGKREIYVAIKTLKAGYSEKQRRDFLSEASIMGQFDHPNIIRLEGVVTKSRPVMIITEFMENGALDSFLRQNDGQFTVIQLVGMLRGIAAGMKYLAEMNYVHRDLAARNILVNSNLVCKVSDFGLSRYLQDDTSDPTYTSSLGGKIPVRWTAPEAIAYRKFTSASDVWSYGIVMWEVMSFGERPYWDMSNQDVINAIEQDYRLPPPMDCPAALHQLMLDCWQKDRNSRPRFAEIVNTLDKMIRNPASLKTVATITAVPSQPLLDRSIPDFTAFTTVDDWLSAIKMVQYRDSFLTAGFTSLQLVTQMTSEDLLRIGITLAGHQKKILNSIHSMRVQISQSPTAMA
Chain of Fyn (P06241 whole entry, looked up): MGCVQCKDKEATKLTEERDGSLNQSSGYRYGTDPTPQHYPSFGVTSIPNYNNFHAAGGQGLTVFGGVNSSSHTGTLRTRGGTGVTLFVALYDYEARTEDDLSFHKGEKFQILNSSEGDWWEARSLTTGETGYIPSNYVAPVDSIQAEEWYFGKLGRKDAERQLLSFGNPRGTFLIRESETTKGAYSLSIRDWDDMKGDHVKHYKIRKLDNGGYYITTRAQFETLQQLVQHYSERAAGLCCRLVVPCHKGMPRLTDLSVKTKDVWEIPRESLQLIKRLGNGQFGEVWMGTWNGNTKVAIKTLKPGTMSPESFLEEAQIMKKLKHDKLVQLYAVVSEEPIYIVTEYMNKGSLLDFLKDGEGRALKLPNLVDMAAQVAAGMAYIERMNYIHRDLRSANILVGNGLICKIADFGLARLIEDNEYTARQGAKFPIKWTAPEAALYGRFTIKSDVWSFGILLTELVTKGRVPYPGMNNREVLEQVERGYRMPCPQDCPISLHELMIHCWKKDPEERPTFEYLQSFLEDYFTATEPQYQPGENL
Chain of Fes (P07332 whole entry, looked up): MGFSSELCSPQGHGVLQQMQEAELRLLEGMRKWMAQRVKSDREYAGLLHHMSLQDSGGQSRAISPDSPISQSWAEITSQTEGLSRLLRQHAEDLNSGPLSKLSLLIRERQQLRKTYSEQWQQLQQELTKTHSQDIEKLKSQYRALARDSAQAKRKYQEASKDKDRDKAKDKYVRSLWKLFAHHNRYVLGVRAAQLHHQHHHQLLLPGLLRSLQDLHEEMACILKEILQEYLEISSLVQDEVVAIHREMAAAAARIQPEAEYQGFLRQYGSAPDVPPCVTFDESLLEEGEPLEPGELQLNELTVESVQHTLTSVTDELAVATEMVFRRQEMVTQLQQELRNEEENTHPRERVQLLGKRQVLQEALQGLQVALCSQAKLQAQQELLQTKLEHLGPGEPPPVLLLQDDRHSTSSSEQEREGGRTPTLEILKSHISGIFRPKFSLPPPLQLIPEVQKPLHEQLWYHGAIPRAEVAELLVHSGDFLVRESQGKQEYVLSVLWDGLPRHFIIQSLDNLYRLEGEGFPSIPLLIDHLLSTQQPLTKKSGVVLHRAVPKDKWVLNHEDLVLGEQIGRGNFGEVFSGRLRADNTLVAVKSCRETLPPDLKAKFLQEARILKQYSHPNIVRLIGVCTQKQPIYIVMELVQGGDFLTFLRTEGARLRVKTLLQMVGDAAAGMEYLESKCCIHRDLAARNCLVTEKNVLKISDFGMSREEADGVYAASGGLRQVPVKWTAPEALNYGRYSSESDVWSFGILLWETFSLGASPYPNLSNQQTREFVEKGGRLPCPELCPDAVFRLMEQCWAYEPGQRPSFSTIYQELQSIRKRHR
Chain of FGFR1 (P11362 whole entry, looked up): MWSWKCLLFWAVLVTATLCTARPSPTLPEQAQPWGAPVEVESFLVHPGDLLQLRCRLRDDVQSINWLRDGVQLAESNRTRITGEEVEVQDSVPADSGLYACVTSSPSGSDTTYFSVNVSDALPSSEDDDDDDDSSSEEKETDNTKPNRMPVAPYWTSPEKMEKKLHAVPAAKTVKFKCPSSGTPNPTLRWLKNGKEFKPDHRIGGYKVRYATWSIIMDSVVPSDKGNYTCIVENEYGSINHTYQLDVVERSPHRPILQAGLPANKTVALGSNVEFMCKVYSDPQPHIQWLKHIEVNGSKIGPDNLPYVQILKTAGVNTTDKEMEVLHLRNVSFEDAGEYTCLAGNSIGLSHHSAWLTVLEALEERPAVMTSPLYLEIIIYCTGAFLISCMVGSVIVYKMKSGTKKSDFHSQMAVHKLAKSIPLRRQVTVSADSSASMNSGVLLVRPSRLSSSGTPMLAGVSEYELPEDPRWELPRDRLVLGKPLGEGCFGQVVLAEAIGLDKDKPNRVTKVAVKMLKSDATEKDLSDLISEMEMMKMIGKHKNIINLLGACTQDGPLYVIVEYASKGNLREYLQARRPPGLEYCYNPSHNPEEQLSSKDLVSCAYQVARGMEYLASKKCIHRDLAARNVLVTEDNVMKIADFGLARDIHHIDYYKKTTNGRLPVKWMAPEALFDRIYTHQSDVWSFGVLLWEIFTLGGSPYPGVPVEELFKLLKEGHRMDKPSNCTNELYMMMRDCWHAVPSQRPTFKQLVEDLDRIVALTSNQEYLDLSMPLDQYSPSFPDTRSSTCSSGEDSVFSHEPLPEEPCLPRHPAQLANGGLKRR
Chain of Hck (P08631 whole entry, looked up): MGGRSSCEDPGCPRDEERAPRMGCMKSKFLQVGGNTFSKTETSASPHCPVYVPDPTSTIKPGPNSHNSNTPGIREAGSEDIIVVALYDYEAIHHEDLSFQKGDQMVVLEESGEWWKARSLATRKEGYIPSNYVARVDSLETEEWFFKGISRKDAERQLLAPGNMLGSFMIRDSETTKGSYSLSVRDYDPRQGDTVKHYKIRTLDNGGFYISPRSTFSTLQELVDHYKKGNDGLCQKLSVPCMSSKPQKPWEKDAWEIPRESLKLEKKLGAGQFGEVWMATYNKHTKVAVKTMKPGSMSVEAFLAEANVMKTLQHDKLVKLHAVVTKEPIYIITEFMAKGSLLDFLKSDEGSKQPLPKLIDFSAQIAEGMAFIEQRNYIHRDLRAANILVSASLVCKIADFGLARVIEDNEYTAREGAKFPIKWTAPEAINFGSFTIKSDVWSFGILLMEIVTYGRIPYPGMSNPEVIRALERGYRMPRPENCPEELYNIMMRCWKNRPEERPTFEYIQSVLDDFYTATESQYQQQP

| Sequence | phosphorylation enrichment (AncSZ) | phosphorylation enrichment (EPHB1) | phosphorylation enrichment (EPHB2) | phosphorylation enrichment (FGFR1) | phosphorylation enrichment (FGFR3) | phosphorylation enrichment (Fer (mouse)) | phosphorylation enrichment (Fes) | phosphorylation enrichment (Fyn) | phosphorylation enrichment (Hck) | phosphorylation enrichment (Jak2) | phosphorylation enrichment (MERTK) | phosphorylation enrichment (c-Abl (mouse)) | phosphorylation enrichment (c-Src) | SH2 binding enrichment (Grb2 SH2) | SH2 binding enrichment (SHP2-C SH2) | SH2 binding enrichment (c-Src SH2) |
| --- | --- | --- | --- | --- | --- | --- | --- | --- | --- | --- | --- | --- | --- | --- | --- | --- |
| MGSFNYLGFAW [SPTLC2_Y178_R183W_YF] | 1.17 | 2.34 | 1.09 | 0.971 | 1.03 | 0.559 | 1.16 | 0.547 | 0.588 | 1.85 | 0.681 | 0.768 | 0.72 | 0.676 | 0.601 | 0.385 |
| MPLDQYSPSFP [FGFR1_Y776] | 0.857 | 0.399 | 0.617 | 0.631 | 0.79 | 0.654 | 0.941 | 0.496 | 0.6 | 0.917 | 0.595 | 0.706 | 0.552 | 1.08 | 0.803 | 0.518 |
| MSRDIYSTDFF [NTRK1_Y676_YF] | 0.852 | 5.71 | 6.8 | 2.6 | 1.65 | 1.63 | 1.04 | 6.12 | 4.34 | 0.726 | 10.4 | 0.631 | 5.13 | 1.01 | 1.09 | 0.512 |
| MSRNLYSGDCF [DDR2_Y736_Y740C_YF] | 1.01 | 2.02 | 1.97 | 0.793 | 0.968 | 0.911 | 1 | 1.71 | 2.12 | 0.903 | 5.87 | 0.739 | 1.93 | 0.837 | 0.595 | 0.929 |
| MVTSGYKAKMI [EFR3A_Y447_T451M] | 0.563 | 0.401 | 0.528 | 0.384 | 0.389 | 0.393 | 0.589 | 0.355 | 0.39 | 0.695 | 0.414 | 0.552 | 0.435 | 0.871 | 0.469 | 0.539 |
| NACGLYFKLHN [GATA2_Y376_YF] | 1.26 | 0.552 | 0.496 | 0.437 | 0.722 | 0.425 | 0.979 | 0.427 | 0.491 | 1.21 | 0.466 | 0.784 | 0.358 | 0.899 | 0.686 | 0.449 |
| NCLRVYVAGRF [CRB1_Y711_E710V] | 1.71 | 0.497 | 0.627 | 0.447 | 0.758 | 0.434 | 1.15 | 0.535 | 0.414 | 1.08 | 0.339 | 1.03 | 0.567 | 1.11 | 0.97 | 0.678 |
| NDQPDYDSVAS [GIT2_Y392] | 1.3 | 0.63 | 0.671 | 0.522 | 0.76 | 0.558 | 1.19 | 0.546 | 0.735 | 1.23 | 0.511 | 0.849 | 0.992 | 0.902 | 0.767 | 0.658 |
| NFRRGYHLQVL [CD200R1L_Y138_H135R] | 0.621 | 0.379 | 0.473 | 0.462 | 0.528 | 0.439 | 0.699 | 0.416 | 0.386 | 0.528 | 0.394 | 0.486 | 0.38 | 0.847 | 0.713 | 0.753 |
| NFRTIYVNANE [KCNH2_Y475_T474I] | 0.659 | 0.543 | 0.5 | 0.417 | 0.529 | 0.428 | 0.775 | 0.423 | 0.525 | 0.717 | 0.367 | 0.509 | 0.44 | 19 | 8.36 | 3.07 |
| NFYEYYVDDPP [GCHFR_Y48] | 2.53 | 5.35 | 6.26 | 5.94 | 4.76 | 6.58 | 1.29 | 5.21 | 2.65 | 1.23 | 6.46 | 0.877 | 4.3 | 0.709 | 0.505 | 0.679 |
| NGTVTYAIIAG [CDH23_Y1672_V1675I] | 1.1 | 2.83 | 1.12 | 0.628 | 0.746 | 0.503 | 1.28 | 0.968 | 1.31 | 0.989 | 2.68 | 0.892 | 1.33 | 0.78 | 16.6 | 1.43 |
| NHFKRYNLCAE [PTEN_Y68_I67R_YF] | 0.638 | 0.384 | 0.565 | 0.456 | 0.471 | 0.419 | 0.668 | 0.459 | 0.449 | 0.59 | 0.485 | 0.678 | 0.538 | 0.949 | 0.618 | 0.644 |
| NHYKIYNPCAE [PTEN_Y68_L70P] | 0.714 | 0.437 | 0.48 | 0.485 | 0.573 | 0.382 | 0.834 | 0.508 | 0.55 | 0.569 | 0.427 | 0.607 | 0.424 | 0.752 | 0.761 | 0.427 |
| NKKYHYRELPV [ERN2_Y860_H858Y] | 0.456 | 0.361 | 0.278 | 0.316 | 0.345 | 0.32 | 0.502 | 0.296 | 0.29 | 0.379 | 0.28 | 0.515 | 0.32 | 1.17 | 1.12 | 1.06 |
| NKVFTYIFIME [SCN4A_Y1074_D1069N] | 1.28 | 0.685 | 0.613 | 0.507 | 0.857 | 0.589 | 1.71 | 0.46 | 0.509 | 1.46 | 0.419 | 0.99 | 0.487 | 0.745 | 0.765 | 0.342 |
| NLVSEYQQFQD [TUBB3_Y422_D417N_YF] | 1.17 | 0.739 | 0.624 | 0.545 | 0.745 | 0.556 | 1.14 | 0.574 | 0.535 | 1.08 | 0.429 | 0.88 | 0.698 | 0.74 | 0.673 | 0.64 |
| NPSFNYEIVNQ [DYNC1H1_Y3379_R3384Q_YF] | 1.43 | 3.9 | 1.44 | 0.763 | 0.847 | 1.12 | 1.47 | 0.524 | 0.602 | 1.13 | 0.492 | 0.586 | 0.408 | 0.78 | 0.579 | 0.724 |
| NQSVRYDSSLK [ABCC8_Y1353_L1349Q] | 0.523 | 0.484 | 0.491 | 0.341 | 0.456 | 0.57 | 0.601 | 0.461 | 0.429 | 0.556 | 0.423 | 0.487 | 0.433 | 0.675 | 0.609 | 0.404 |
| NTGNYYDLYGG [PTPN11_Y63_D61N] | 1.73 | 18.3 | 20.1 | 15.7 | 12.6 | 2.82 | 0.984 | 6.39 | 6.84 | 2.42 | 9.28 | 1.01 | 5.29 | 1.08 | 0.854 | 2.49 |
| PADQAYSWYQH [NDST1_Y711_R709Q] | 1.55 | 0.755 | 0.674 | 5.18 | 3.15 | 20.6 | 1.57 | 1.17 | 1.37 | 0.765 | 3.75 | 0.6 | 1.58 | 0.802 | 0.488 | 0.63 |
| PELIDYGKLWK [ACTN1_Y193_R197W] | 1.31 | 0.718 | 0.683 | 0.535 | 0.766 | 0.531 | 1.26 | 0.601 | 0.393 | 0.761 | 0.522 | 0.912 | 0.59 | 0.958 | 0.989 | 0.538 |
| PELINYHQHFS [BTK_Y361_N365Y_YF] | 0.508 | 0.723 | 0.44 | 0.591 | 0.799 | 0.366 | 0.869 | 0.547 | 0.513 | 0.869 | 0.401 | 0.711 | 0.38 | 0.895 | 0.934 | 0.557 |
| PEVSGYCHYAD [TG_Y234_C237Y] | 0.864 | 0.831 | 0.616 | 0.427 | 0.714 | 1.1 | 1.1 | 0.506 | 0.658 | 1.04 | 0.425 | 1.2 | 0.454 | 0.691 | 0.676 | 0.935 |
| PFRFIYMAVQH [PTPN11_Y515_Q510P_YF] | 1.09 | 0.741 | 0.737 | 0.463 | 0.726 | 0.563 | 1.01 | 0.732 | 1.11 | 1.18 | 0.527 | 1.27 | 1.26 | 1.02 | 1.02 | 0.872 |
| PGAPAYCVLME [MYO5A_Y1245_R1246C] | 1.64 | 3.07 | 1.5 | 1.58 | 1.64 | 0.876 | 1.44 | 1.12 | 1.38 | 1.25 | 4.03 | 1.27 | 0.964 | 0.628 | 0.549 | 0.883 |
| PGDGEYFTLQI [TP53_Y327_L323G] | 2.91 | 0.895 | 0.892 | 10.5 | 7.71 | 0.651 | 1.57 | 3.54 | 1.95 | 4.13 | 0.705 | 1.75 | 4.02 | 0.895 | 0.677 | 0.275 |
| PGIRMYQVQFN [LRFN1_Y454_YF] | 0.619 | 0.467 | 0.505 | 0.31 | 0.531 | 0.423 | 0.863 | 0.504 | 0.384 | 0.789 | 0.349 | 0.636 | 0.583 | 1.61 | 1.12 | 0.997 |
| PGLSSYGVPAS [FLNB_Y1530] | 0.677 | 0.543 | 0.435 | 0.56 | 0.526 | 0.408 | 0.738 | 0.661 | 0.482 | 0.599 | 0.497 | 0.913 | 0.474 | 0.898 | 0.658 | 0.545 |
